Measurements as given in patent US20220227870A1 (Innovent, published 2022).
Where two headings read alike, the source gives them in different places.

T1: human LAG-3 expressed on the surface of cells (293-LAG-3 cells) (human, UniProt P18627 23-525)
T1 construct: whole, on cells; also called HEK293 cells overexpressing LAG-3; CD223
T1 sequence (looked up): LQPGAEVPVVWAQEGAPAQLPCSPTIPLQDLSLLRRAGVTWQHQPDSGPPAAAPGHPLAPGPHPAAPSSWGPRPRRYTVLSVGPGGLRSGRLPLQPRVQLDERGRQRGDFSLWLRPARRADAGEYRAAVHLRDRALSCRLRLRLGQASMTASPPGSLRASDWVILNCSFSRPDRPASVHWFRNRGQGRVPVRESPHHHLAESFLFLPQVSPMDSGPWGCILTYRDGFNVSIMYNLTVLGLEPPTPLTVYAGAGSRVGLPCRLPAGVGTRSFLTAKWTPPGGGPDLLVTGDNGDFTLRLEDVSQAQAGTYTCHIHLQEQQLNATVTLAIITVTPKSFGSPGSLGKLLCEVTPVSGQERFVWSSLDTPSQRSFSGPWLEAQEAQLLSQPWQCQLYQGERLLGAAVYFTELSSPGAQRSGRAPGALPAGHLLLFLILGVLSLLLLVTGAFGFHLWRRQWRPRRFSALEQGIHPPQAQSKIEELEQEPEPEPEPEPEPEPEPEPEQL

B1: anti-CD47/PD-L1 bispecific antibody Kh2NF-PC (bispecific antibody, human IgG1, kappa, L234A L235A)
heavy: not shown
light: DIQMTQSPSSVSASVGDRVTITCRASQGISRWLAWYQQKPGKAPKLLIYAASSLQSGVPSRFSGSGSGTDFTLTISSLQPEDFATYYCQQTVSFPITFGGGTKVEIKRTVAAPSVFIFPPSDEQLKSGTASVVCLLNNFYPREAKVQWKVDNALQSGNSQESVTEQDSKDSTYSLSSTLTLSKADYEKHKVYACEVTHQGLSSPVTKSFNRGEC
chain: QVQLQESGGGLVQPGGSLRLSCAASAYTISRNSMGWFRQAPGKGLEGVAAIESDGSTSYSDSVKGRFTISLDNSKNTLYLEMNSLRAEDTAVYYCAAPKVGLGPRTALGHLAFMTLPALNYWGQGTLVTVSSGGGGSGGGGSGGGGSGGGGSQVQLQESGGGLVQPGGSLRLSCAASAYTISRNSMGWFRQAPGKGLEGVAAIESDGSTSYSDSVKGRFTISLDNSKNTLYLEMNSLRAEDTAVYYCAAPKVGLGPRTALGHLAFMTLPALNYWGQGTLVTVSSDKTHTCPPCPAPEAAGGPSVFLFPPKPKDTLMISRTPEVTCVVVDVSHEDPEVKFNWYVDGVEVHNAKTKPREEQYNSTYRVVSVLTVLHQDWLNGKEYKCKVSNKALPAPIEKTISKAKGQPREPQVCTLPPSRDELTKNQVSLSCAVKGFYPSDIAVEWESNGQPENNYKTTPPVLDSDGSFFLVSKLTVDKSRWQQGNVFSCSVMHEALHNHYTQKSLSLSPG
notes: Triple-chain antibody (1+2 format)
B2: anti-CD47/PD-L1 bispecific antibody Kh2NF-PC-NL (bispecific antibody, human IgG1, kappa, L234A L235A)
heavy: not shown
light: B1 light
chain: QVQLQESGGGLVQPGGSLRLSCAASAYTISRNSMGWFRQAPGKGLEGVAAIESDGSTSYSDSVKGRFTISLDNSKNTLYLEMNSLRAEDTAVYYCAAPKVGLGPRTALGHLAFMTLPALNYWGQGTLVTVSSQVQLQESGGGLVQPGGSLRLSCAASAYTISRNSMGWFRQAPGKGLEGVAAIESDGSTSYSDSVKGRFTISLDNSKNTLYLEMNSLRAEDTAVYYCAAPKVGLGPRTALGHLAFMTLPALNYWGQGTLVTVSSDKTHTCPPCPAPEAAGGPSVFLFPPKPKDTLMISRTPEVTCVVVDVSHEDPEVKFNWYVDGVEVHNAKTKPREEQYNSTYRVVSVLTVLHQDWLNGKEYKCKVSNKALPAPIEKTISKAKGQPREPQVCTLPPSRDELTKNQVSLSCAVKGFYPSDIAVEWESNGQPENNYKTTPPVLDSDGSFFLVSKLTVDKSRWQQGNVFSCSVMHEALHNHYTQKSLSLSPG
notes: Triple-chain antibody without a linker between the two VHH; Fc with LALA and knob-in-hole mutations
B3: anti-4-1BB antibody BMS-663513 (antibody, V domains shown)
VH: QVQLQQWGAGLLKPSETLSLTCAVYGGSFSGYYWSWIRQSPEKGLEWIGEINHGGYVTYNPSLESRVTISVDTSKNQFSLKLSSVTAADTAVYYCARDYGPGNYDWYFDLWGRGTLVTVSS
VL: EIVLTQSPATLSLSPGERATLSCRASQSVSSYLAWYQQKPGQAPRLLIYDASNRATGIPARFSGSGSGTDFTLTISSLEPEDFAVYYCQQRSNWPPALTFGGGTKVEIK
notes: also called parent antibody (anti-4-1BB)
B4: anti-4-1BB/PD-L1 bispecific antibody Kh2NF-P4 (bispecific antibody, human IgG1, kappa, L234A L235A)
heavy: not shown
light: not shown
chain: B1 chain
notes: Triple-chain antibody; Fc with LALA and knob-in-hole mutations
B5: anti-LAG-3/PD-L1 bispecific antibody Kh2NF-PL (bispecific antibody, human IgG1, kappa, L234A L235A)
heavy: not shown
light: not shown
chain: B2 chain
notes: as for B4
B6: anti-LAG-3 antibody ADI-31853 (antibody, V domains shown)
VH: QLQLQESGPGLVKPSETLSLTCTVSGGSIYSESYYWGWIRQPPGKGLEWIGSIVYSGYTYYNPSLKSRVTISVDTSKNQFSLKLSSVTAADTAVYYCARVRTWDAAFDIWGQGTMVTVSS
VL: DIQMTQSPSSLSASVGDRVTITCQASQDISNYLNWYQQKPGKAPKLLIYDASNLETGVPSRFSGSGSGTDFTFTISSLQPEDIATYYCQQVLELPPWTFGGGTKVEIK
notes: also called parent antibody (anti-LAG-3)
B7: anti-CD47 antibody ADI-29341 (antibody, V domains shown)
VH: QVQLQESGPGLVKPSETLSLTCTVSGGSIEHYYWSWIRQPPGKGLEWIGYIYYSGSTNYNPSLKSRVTISVDTSKNQFSLKLSSVTAADTAVYYCARGKTGSAAWGQGTLVTVSS
VL: DIQMTQSPSSVSASVGDRVTITCRASQGISRWLAWYQQKPGKAPKLLIYAASSLQSGVPSRFSGSGSGTDFTLTISSLQPEDFATYYCQQTVSFPITFGGGTKVEIK
notes: captured on an anti-human IgG Fc sensor; also called parent antibody (anti-CD47)
B8: IgG1 Control (antibody, V domains shown)
VH: EVRLLESGGGLVQPGGSLRLSCAASGFTFSNYAMGWVRQAPGKGLEWVSAISGSGGSTYYADSVKGRFTTSRDDSKNALYLQMNSLRAEDTAVYYCARGGPGWYAADVWGQGTTVTVSS
VL: DIQMTQSPSSLSASVGDRVTITCRASQSISSYLNWYQQKPGKAPKLLIYAASSLQSGVPSRFSGSGSGTDFTLTISSLQPEDFATYYCQQADLPAFAFGGGTKVEIKR
notes: also called IgG1 negative control antibody

Key:
[1] = biological target: T2, human CD47 expressed on the surface of cells (CHO-S-CD47 cells) (human, UniProt Q08722 19-323); assay: FACS on CHO-S cells overexpressing human CD47; antibody sample of day 0
T2 construct: whole, on cells; also called CHO-S cells overexpressing CD47; CHO-CD47

[2] = biological target: T3, tumor cells H292 (ATCC), co-incubated with human red blood cells; assay: flow cytometry; CFSE-labelled H292 cells co-incubated 1:20 with human red blood cells; antibody 0.123 nM
T3 construct: also called H292 cells
Protocol: (§1) Tumor cells H292 (ATCC) were fluorescently labeled with fluorochrome CFSE according to the instructions of CellTrace™ CFSE Cell Proliferation Kit (Invitrogen, catalog number: C34554). The labeled tumor cells were co-cultured with the aforementioned isolated human red blood cells at a ratio of 1:20 in terms of cell number, and meanwhile, tested antibody solutions of different concentrations were added. The cells were incubated at 4° C. for 30 min. […] The cells were washed at least twice with PBS and analyzed by flow cytometry.

[3] = biological target: T3, tumor cells H292 (ATCC), co-incubated …; assay: flow cytometry; CFSE-labelled H292 cells co-incubated 1:20 with human red blood cells; antibody 0.370 nM
Protocol: (§2) The mixture was then gently added to 4 tubes each with 12.5 ml of FiColl (Thermo). The samples were centrifuged at 400 g for 30 min with zero deceleration. The upper serum and PBMC were removed to obtain red blood cells in the lowest layer.
as §1

[4] = biological target: T3, tumor cells H292 (ATCC), co-incubated …; assay: flow cytometry; CFSE-labelled H292 cells co-incubated 1:20 with human red blood cells; antibody 3.333 nM
Protocol: as §2, §1

[5] = biological target: T2, human CD47 expressed on the surface of …; assay: FACS on CHO-S cells overexpressing human CD47; antibody sample after 30 days at 40 C
Protocol: (§3) The cell suspension was centrifuged at 400 g on a centrifuge for 5 minutes to remove the cell medium. […] The cell suspension was centrifuged at 400 g for 5 minutes, and then the supernatant was removed, and the cells were washed with PBS to remove the unbound antibodies. The obtained cell suspension was centrifuged at 400 g for 5 minutes to remove PBS. 100 μL of the solution of PE-conjugated anti-human Fc antibody (Jackson Immuno Research) diluted at a ratio of 1:200 was added to each well, and the cells were incubated in the dark on the ice for 30 minutes. Then the cell suspension was centrifuged at 400 g for 5 minutes and the supernatant was removed. The cells were washed with PBS to remove the unbound PE-conjugated anti-human Fc antibody. The cells were resuspended with 100 μL of PBS, and the binding of the antibodies to cells was assayed by FACS.

[6] = biological target: T3, tumor cells H292 (ATCC), co-incubated …; assay: flow cytometry; CFSE-labelled H292 cells co-incubated 1:20 with human red blood cells; antibody 1.111 nM
Protocol: as §1

[7] = biological target: T2, human CD47 expressed on the surface of …; assay: FACS on CHO-S cells overexpressing human CD47, PE-conjugated anti-human Fc detection, MFI
Protocol: as §3

[8] = biological target: T3, tumor cells H292 (ATCC), co-incubated …; assay: flow cytometry; CFSE-labelled H292 cells co-incubated 1:20 with human red blood cells; antibody 0.041 nM
Protocol: as §1

[9] = biological target: T3, tumor cells H292 (ATCC), co-incubated …; assay: flow cytometry; CFSE-labelled H292 cells co-incubated 1:20 with human red blood cells; antibody 0.014 nM
Protocol: as §2, §1

h CD47 (Acrobiosystems) = biological target: T4, h CD47 (Acrobiosystems) (human, UniProt Q08722 19-139); assay: ForteBio Octet BLI; antibody loaded on AHC sensor, h CD47 100 nM in solution
T4 construct: Bought soluble antigen; also called CD47 protein in solution
Protocol: (§4) The anti-human IgG Fc biosensor AHC was immersed in each well containing the antibody solution, and immersed at room temperature for 600 seconds to load the samples. The sensor was then washed in SD buffer until it returned to the baseline, and then immersed in a well containing 100 μL of the antigen solution to monitor the association of the antibody with the antigen. The sensor was then transferred to a well containing 100 ul of SD buffer to monitor the antibody dissociation. The rotation speed was 400 rpm and the temperature was 30° C. The background-corrected association and dissociation curves were plotted by the Octet analysis software (ForteBio) to generate the association (k_{∞}) rate constant and dissociation (kdis) rate constant, which are then used to calculate the equilibrium dissociation constant (KD).

[10] = biological target: T3, tumor cells H292 (ATCC), co-incubated …; assay: flow cytometry; CFSE-labelled H292 cells co-incubated 1:20 with human red blood cells; antibody 10.000 nM
Protocol: as §2, §1

[11] = biological target: T5, human 4-1BB expressed on the surface of cells (CHO-S-4-1BB cells) (human, UniProt Q07011 24-255); assay: FACS on CHO-S cells overexpressing human 4-1BB, PE-conjugated anti-human Fc detection, MFI
T5 construct: whole, on cells; also called CHO-S cells overexpressing 4-1BB; CD137
T5 sequence (Q07011 24-255): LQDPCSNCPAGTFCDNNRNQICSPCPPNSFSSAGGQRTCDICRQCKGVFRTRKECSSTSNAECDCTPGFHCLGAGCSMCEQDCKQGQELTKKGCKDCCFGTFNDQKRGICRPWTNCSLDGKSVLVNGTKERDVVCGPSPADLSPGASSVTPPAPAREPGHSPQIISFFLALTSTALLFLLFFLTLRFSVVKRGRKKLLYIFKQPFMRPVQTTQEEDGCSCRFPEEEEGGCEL

[12] = biological target: T6, human PD-L1 expressed on the surface of cells (CHO-S-PD-L1 cells) (human, UniProt Q9NZQ7 19-290); assay: FACS on CHO-S cells overexpressing human PD-L1, PE-conjugated anti-human Fc detection, MFI
T6 construct: whole, on cells; also called CHO-S cells overexpressing PD-L1; PD-L1 aAPC/CHO-K1 cells
Protocol: (§5) In short, CHO-S-PD-L1 cells were counted, and the cell suspension was diluted to 1×10⁶ cells/ml with cell medium, and then added to a U-bottom 96-well plate at 100 μl/well. The cell suspension was centrifuged at 400 g on a centrifuge for 5 minutes to remove the cell medium. […] The cell suspension was centrifuged at 400 g for 5 minutes, and then the supernatant was removed, and the cells were washed with PBS to remove the unbound antibodies. The obtained cell suspension was centrifuged at 400 g for 5 min to remove PBS. 100 μl of the solution of PE-conjugated anti-human Fc antibody (Jackson Immuno Research) diluted at a ratio of 1:200 was added to each well, and the cells were incubated in the dark on the ice for 30 min. Then the cell suspension was centrifuged at 400 g for 5 min and the supernatant was removed. The cells were washed with PBS to remove the unbound PE-conjugated anti-human Fc antibody. The cells were resuspended with 100 μl of PBS, and the binding of the antibodies to cells was assayed by FACS.

[13] = biological target: T1, human LAG-3 expressed on the surface of …; assay: FACS on HEK293 cells overexpressing human LAG-3, PE-conjugated anti-human Fc detection, MFI
[14] = biological target: T6, human PD-L1 expressed on the surface of …; assay: FACS on CHO-S cells overexpressing human PD-L1, PE-conjugated anti-human Fc detection, MFI; remark: listed apart in the source
Protocol: as §5

[15] = biological target: T7, rh PD-L1 (Acrobiosystems) (human, UniProt Q9NZQ7 19-238); assay: ForteBio Octet BLI; antibody loaded on AHC sensor, antigen 100 nM in solution; note: N.B: Not detectable
T7 construct: Bought soluble antigen; also called PD-L1 protein in solution
Protocol: as §4

Row | Binder | proportion of antibody binding to H292 cells [2] | proportion of antibody binding to H292 cells [3] | proportion of antibody binding to H292 cells [4] | proportion of antibody binding to H292 cells [6] | EC50 (read off the curve) [7] | proportion of antibody binding to H292 cells [8] | proportion of antibody binding to H292 cells [9] | Kd (h CD47 (Acrobiosystems)) | koff (h CD47 (Acrobiosystems)) | kon (h CD47 (Acrobiosystems)) | proportion of antibody binding to H292 cells [10] | further results
1 | B1 | 88.5% | 44.5% | 12.1% | 23% | ~2 nM | 82% | 14.9% | 1.31 nM | 0.00155 s⁻¹ | 1.18e+06 M⁻¹ s⁻¹ | 12.5% | EC50 (read off the curve) [1]: ~2 nM; EC50 (read off the curve) [5]: ~3 nM
2 | B2 | 83.2% | 61.6% | 13.2% | 41% | ~2 nM | 46.3% | 1.41% | 1.07 nM | 0.00128 s⁻¹ | 1.19e+06 M⁻¹ s⁻¹ | 11.3% | EC50 (read off the curve) [1]: ~3 nM
3 | B3 | – | – | – | – | – | – | – | – | – | – | – | EC50 (read off the curve) [11]: ~1 nM
4 | B4 | – | – | – | – | – | – | – | – | – | – | – | EC50 (read off the curve) [12]: ~2 nM; EC50 (read off the curve) [11]: ~5 nM
5 | B5 | – | – | – | – | – | – | – | – | – | – | – | EC50 (read off the curve) [13]: ~1 nM; EC50 (read off the curve) [14]: ~1 nM
6 | B6 | – | – | – | – | – | – | – | – | – | – | – | EC50 (read off the curve) [13]: ~0.5 nM
7 | B7 | 5.74% | 14.4% | 8.42% | 6.15% | ~1 nM | 17.7% | 3.59% | 2.32 nM | 0.0018 s⁻¹ | 774000 M⁻¹ s⁻¹ | 3.9% | binding result [15]: no binding (tested: 100 nM)
8 | B8 | – | – | – | – | – | – | – | – | – | – | – | binding result [7]: no binding (tested: about 300 nM)
